In the nanobody polyreactivity screen of Harvey et al. (2022):

Assay: yeast display, Sf9 membrane polyspecificity reagent, FACS + sequencing; frameworks hold sequencing errors
Method in brief: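 After 36–48 hours of galactose induction, yeast (Saccharomyces cerevisiae BJ5465) displaying a synthetic nanobody library were stained at 4 °C for 1 hour with 10% biotinylated, detergent-solubilized Sf9 membrane reagent. Streptavidin microbeads enriched the stained cells before FACS sorting into low and high (top ~1%) gates on anti-HA and streptavidin fluorescence. Each clone's polyreactivity label reflects its gate of origin.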
For “QVQLVESGGGLVQAGGSLRLSCAASGITFNPNAMGWYRQAPGKERELVAVITYRGGSTYYADSVMGRFTISRDNAKNTVYLQMNSLKPADTAVYYCAAQYIGWHLYWYDYWGQGTQVTVSS”, the “polyreactivity (PSR sort gate)” value was “low polyreactivity”. In the case of “QVQLVESGGGLVQAGGSLRLSCAASGFIFDAYAMGWYRQAPGKERELVAAITRGNTYYADSVKGRFTISRDNAKNTVYLQMNSLKPEDTALYYCNADYNYANYPHDYWGQVTQVTVSS”, the “polyreactivity (PSR sort gate)” value was “low polyreactivity”. With “QVQLVESGGGLVQAGGSLRLSCAASGSTFPTYVMGWYRQAPGKERELVASINSDTGTYYADSVKGRFTISRDNAQNTVYLQMNSLKPEDTAVYYCNARQAYYFYPFEYDYWGQGTQVTVSS” the “polyreactivity (PSR sort gate)” value was “low polyreactivity”. In the case of “QVQLVESGGCLVQAGGTLRLSCDASGITFSRNTMGWYRQAPGKERELVAAITLRGGGRTYYADSVKGRFTISRDNAKNTDYLQLNSLNPEDTAVYYCARVYSSEKAYGYWGQGTQVTVSS”, the “polyreactivity (PSR sort gate)” value was “high polyreactivity”. With “QVQLEESGGGLVQAGGSLRLSCAASGFTLPLYAMGWYIQAPGKERELVAAISSGGGRTYYADSVKGRFTISPDYEKNSVYLQMNSLKPEDTAVYYCNVDRWWLGRYKFYYWGQGTQVTVSS” the “polyreactivity (PSR sort gate)” value was “high polyreactivity”. For “QVQLVESGGGLVQAGGSLRLSCAASGSIFGFYAMGWYRQAPWKERELVAAINSNSGSTYYADSVKGRFTISRDNAKNTVYLQMNSLKPEDTAVYYCAARSPYVTPQGFNYCGQGTQVTVSS”, the “polyreactivity (PSR sort gate)” value was “high polyreactivity”. In the case of “QVQLVESGGGLVQAGGSLRLSCAASGRIFPRNAMGWYRQAPGKERELVAAISQSGTSTYYADSVKGRFTISRDNAKNTVYLQMNSLKPEDTAVYYCAAVSSSGYYWGQGTQVTVSS”, the “polyreactivity (PSR sort gate)” value was “low polyreactivity”. For “QVQRVESGGGLVQAGCRLRLSCAASGTFFMGWYRQAPWKSRELVAGISISDGSTYYADSVKGRLTISRDNAKNTVYLQMKSLKPEDTAVYYFAAVFNPTTGFDYWGQGTQVTVSS”, the “polyreactivity (PSR sort gate)” value was “low polyreactivity”. In the case of “QVQLVESGGGLVQAVGRLRLSCAASGSTFAIYAMGWYRQAPGKERELVAAITVSGGSTYYADSVKGRFTISRDNAKNTVYLQMNSLKPEDTAVYYCNADWSGWQGWYNYWGQGTQVTVSS”, the “polyreactivity (PSR sort gate)” value was “low polyreactivity”. In the case of “QVQLVESGGGLVQAGGSLRLSCDASGSTFVTYAMGWYRPAPGKERELVAAINTGGRTKYADSVKGRFTISRDNATNTVYLQMNSLKPEDTAVYYCAARLSTTGVAYGYWGQGTQVTVSS”, the “polyreactivity (PSR sort gate)” value was “high polyreactivity”. For “QVQLVESGGGLVQAGGSLRLSCAASGSTFSQYAMGWYRPAPGKERELVAAINYIGGSTYYADSVKGRFTISRDNAKNTVYLQMNSLKPEDTAVYYCAVQRWKSSVSFGYWGQGTQVTVSS”, the “polyreactivity (PSR sort gate)” value was “low polyreactivity”. In the case of “QVQVVESGGGLVQAGGSLGLSCAASGRTFGSNAMGWYRQAPGKERELVAAISSTVSTNYADSVKGRFTISSDNANNTVYLQMNSLKPEDTAVYFCNVTRHYSYVSEYDYWGQGTQVTVSS”, the “polyreactivity (PSR sort gate)” value was “low polyreactivity”. With “QVQLVESGGGLVQAGGSLRLSCAASGSTFSLYAMGWYRQATGKERELVASIRGRGGSTNYADSVKGRFTISRDNAKNTVYLQMNSLKPEDTAVYYCAAAVGSVRYDYWGQGTQVTVSS” the “polyreactivity (PSR sort gate)” value was “high polyreactivity”. For “QVQLVESGAGLVQAGGSLRLSCAASGFIFVKYVMGWYRQAPGKERELDATITNGVSTNYADSVKGRFTISRDNAKNTVYLQMNSLKPEDTAVYYCNTGSTAWYFSGDYWGQGTQVTVSS”, the “polyreactivity (PSR sort gate)” value was “low polyreactivity”. With “QLQLQEGGGGLVQAGGSLRLSCAASGYISYGDVMGSYRQAPGEERELVASIGLDATTNYADSVKGRFNISRDNAKITVYLQMNSLKPEDTAVYYCAAVVGSGVLCGYWGQGTQMTVSS” the “polyreactivity (PSR sort gate)” value was “high polyreactivity”. With “QVQLVESGGGLVQAGGSLRLSCAASGRIFYPYSMGWYRQAPGKERELVATITYIGGSTYADSVKGRFTISRDNAKNTVYLQMNSLKPEDTAVYYCAASETYFRFPFGIYYYWGQGTQVTVSS” the “polyreactivity (PSR sort gate)” value was “low polyreactivity”. With “QVQLVESGGGLVQAGGSLRLSCDASGRIFYYYGMGWYRQAPGKERELVAAISNGGRTYYADSVKGRFTISRDNAKNTVYLQMNSLKPEDTAVYYCAALTRGRGGYDYWGQGTQVTVSS” the “polyreactivity (PSR sort gate)” value was “high polyreactivity”. With “QVQLVESGGGLVQAGGRLRLSCAASGFIFKGYAKGWYRQAPGKERELVAAISYSGGNTYYADSVKGRFTISRDNAKNTVYLQMNSLKPEDTAVYYCDVRKRKVLGMYYWGQGTQVTVSS” the “polyreactivity (PSR sort gate)” value was “high polyreactivity”. For “QVQLVESGGGLVQAGGRLRLSCAASGSSSTPYTMGWYRPAPGKERELVAAISWIGDTTSYADSVKGRFTISRDNAKNTVYLQMNSLKPEDTAVYYCNAEHRGYDYWGHGTQVTVSS”, the “polyreactivity (PSR sort gate)” value was “low polyreactivity”. In the case of “QVQLVESGGGLVQAGGSLRLSCAASGRTLGSNTMGWYRQAPGKERELVASISLSGGSTSYADSVKGRFTISRDNAKNTVYLQMNSLKPEDTAVYYCNAKYHRRLQWGTRYYYWGQGTQVTVSS”, the “polyreactivity (PSR sort gate)” value was “high polyreactivity”. For “QVQLVESGGGLVQAGGSLRLSCAASGFIFEPNAMGWYRQAPGKERELVAAISWSGGSTYYADSVKGRFTISRDNAKNTVYLQMNSLKPEDTAVYYCNAAVRGVGELDYWGQGTQVTVSS”, the “polyreactivity (PSR sort gate)” value was “high polyreactivity”. For “QVQLVESGGGLVQAGGSLRLSCAASGRTFGHNAMGWYRQAPGKEREFVAAITYSGVRTFYADSVKGRFTISRDNAKNTVYLQMNSLKPEDTAVFYCAAYYPSQDYSGFWSDTYEYWGQGTQVTVSS”, the “polyreactivity (PSR sort gate)” value was “low polyreactivity”. With “QVQLVESGGGLVQAGGSLRLSCAASGRIFSFNAMGWYRQAPGKERELVATIRTDGTTNYADSVKGRFTISRDNAKNTVYLQMNSLKPEDTAVYYCAANRKRFAFGYWGQGTQVTVSS” the “polyreactivity (PSR sort gate)” value was “high polyreactivity”. With “QVQLVESGGGLVQAGGSLRLSCAASGIIFTDNAMGWSRQAPGKERELVAAISCRGGSTYYADSVKGRFTISRDNAKNTVYLQMNSLKPEDTAVYYCARYGTDHRLGYGYWGQGTQVTVSS” the “polyreactivity (PSR sort gate)” value was “low polyreactivity”. For “QVQLVESGGGLVQAGGSLRLSCAASGSIFGPYVMGWYRQAPGKERELVAAITFSGGSTYYADSVKGRFTISRDNAKNTVYLQMNSLKPEDTAVYYCNARPYSYRGSKRMYYWGQGTQVTVSS”, the “polyreactivity (PSR sort gate)” value was “high polyreactivity”. For “QVQLVESGGGLVQAGGSLLLSCAASGFTFSYYAMGWYRQAPGKERDLVAAISWDGDSTYYADSVKGRFTISRDNAKNTVYLQMNSLKPEDTAVYYSAAEFSYYWDGYDYWGQGTQVTVSS”, the “polyreactivity (PSR sort gate)” value was “high polyreactivity”. In the case of “QVQLVESGGGLVQAGGSLRLSCAASGITLNRNAMGWYRQAHGKERELVARISRRGGTTYYADSVKGRFTISRDNAKNTVYLQMNSLKPEDTAVYYCNAGPYGGNPFDYWGQGTQVTVSS”, the “polyreactivity (PSR sort gate)” value was “high polyreactivity”. For “QVQLVESGGGLVQAGGSLRLSCAASGSTFVPNAMGWYRQAPGKERELVAAISSVGSTNYADSVKGRFTISRDNAKNTVYLQLNSLKPEDTAVYYCAVRYPWRYFKYGYWGQGTQVTVSS”, the “polyreactivity (PSR sort gate)” value was “low polyreactivity”. For “QVQLVESGGGLVQPGGSLRLSCAASGSIFAYNAMGWSRQAPGKERELVAAISSGGRTKYADSVKGRFTITRDNAKITVYFQMNRQKPEDTAVYYCAAESYTGKYSWVWKWYDYWGQGTQVSVSS”, the “polyreactivity (PSR sort gate)” value was “low polyreactivity”. For “QVQHVESGGGLVQAGGSLRLSCAASGRIFYGYAMGWYRQAPGKERELVAAISSSGGSTYYADSVKGRFTISRDIAKNTVYLQMNSLKPEDTAVYYCNAQRYRPGYWYDYWGQGTQVTVSS”, the “polyreactivity (PSR sort gate)” value was “high polyreactivity”. In the case of “QVQLVESGGGLVQAGGSLRLSCAPSGRNFWYYGMVWYRPAPGRERELVAAISRSGGRTSYADSVKGRFTISRDNAKNTVYLQMNSLKPEDTAVYYCATDGYYRYGYWGQGTQVTVSS”, the “polyreactivity (PSR sort gate)” value was “high polyreactivity”. For “QVQLVESGGGLVQAGGSLRLSCAASGNIFLSYAMGWYRQAPGKERELVAGISASGGRTYYADSVKGRFTISRDNAKNTVYLQMNSLKPEDTAVYYCATRNTRFHLDYWGQGTQVNVSS”, the “polyreactivity (PSR sort gate)” value was “high polyreactivity”. For “QVQLPESGGGLVQAGGSLRLICAASGYISTFSSEMGWYRQAPGKERELVASIAPGCTTSYADSVKGRFTISRDNAKNTVYLQMNSLKPEDTAVYYCGVDYTVPASFGYWGQGTQVTVSS”, the “polyreactivity (PSR sort gate)” value was “high polyreactivity”. For “QVQLVESGGGLVQAGGSLRLSCAASGRTFYNYAMGWYRQAPGKERELVATITGRGGRTFYADSVKGRFTISRDNAKNTVYLQMNSLKPEDTAVYYCDAYRSASPYYTLYVEHDYWGQGTQVTVSS”, the “polyreactivity (PSR sort gate)” value was “low polyreactivity”. For “QVQLVESGGGLVQAGGSLRLSCAASGRTFYTYAMGWYRQAPGKEREFVAAIDWSGGTTYYADSVKGRFTISRDNAKNTVFLQINSLKPEDTAVYYCAADDSFYRQYYYRAHGDYWGQGYQVTVSS”, the “polyreactivity (PSR sort gate)” value was “low polyreactivity”. With “QVQLVESVGGLVQAGGILRLSCAASGYTFGGSAKGWYRPAPGKERELVAAITRRGGSTYYADSVKGRFTISRDNAKNTVYLQMNSLKPEDTAVYYCAKRSGSYSYPAVGGWGLGYWGHGTQVTVSS” the “polyreactivity (PSR sort gate)” value was “high polyreactivity”. In the case of “QVQLVESGGGLVQAGGSLRLSCAASGITFGSYAMGWYRQAPGKEREFVAAISLSGGNTYYADSEKGRFTISRDNAKNPVYLQMNSLKPEDTAVYYCAADPFSSYYKMEYWGQGTQVTVSS”, the “polyreactivity (PSR sort gate)” value was “high polyreactivity”. In the case of “QVQIVESGGGLVQAGGSLRLSCAASGRIFTVYGKGWYRQAPGKERELVAAISWSGGGTYYADSVKGRFTISRDNAQNTVYLQKNSLKPDDTAVYYCNADRQYTWSLVFFSSEYDYWGQGTQVTVSS”, the “polyreactivity (PSR sort gate)” value was “low polyreactivity”. For “QVQLVESGGGLVQAGGSLRISCAASGGIIQYYDMGWYRQAPGKEREFVATISQRGGITYYADSVKGRFTISRDNAKNTVYLQMNSLKPEDTAVYYCAARSYYAVYYWGQGTQVTVSS”, the “polyreactivity (PSR sort gate)” value was “high polyreactivity”. In the case of “QVQLVESGGGLVQAGGSLRLSCAASGSIFEYNAMGWYRQAPGKERELVAAITRGGNTYYADSVKGRFTISRDNAKNTVYLQMNSLKPEDTAVYYCAAVQWYGYPYYSWGQGTQVTVSS”, the “polyreactivity (PSR sort gate)” value was “low polyreactivity”. With “QVQLVDSGGGLVQAGGSLRLSCAASGRTFLFNSMGWYRQATGKQRELVAGITWSSGSTYYADSVKGRITISRDNAKNTVYLQMNSLKPEDTAVYYCAAYHFHDNDYWGQGTQVTVSS” the “polyreactivity (PSR sort gate)” value was “low polyreactivity”. With “QVQLVESGGCLVQAGGSLRLSCAASGSIFHPYAMGWYRPAPGKERELVAAISKSGGNTYYADSVKGRFTISRDNAKNTVYLQMNSLKPEHTEVYYCAADYYRGRYSDRYDYWGQGTQVTVSS” the “polyreactivity (PSR sort gate)” value was “low polyreactivity”. In the case of “QVQLVESGGGLVQAGGSLRLSCAASGSTFTCYAMGWNRQAPRKERELVADITWRDGSTYYADSVKGRFTISRDNAKNTVYLQMNSLKPEDTAVYYCNGRRDYDMDWGQVTQVTVSS”, the “polyreactivity (PSR sort gate)” value was “high polyreactivity”.
